Each block holds one binder with its values, some of them ahead of it.
What was measured:
Experiment in all cases: two-hybrid library CCNG1;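 note: natural log of median RNA to DNA barcode read ratio; higher means stronger binding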
4H906-bA = biological target: T1, 4H906-bA
T1 chain: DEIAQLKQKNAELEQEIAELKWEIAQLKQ

4H3631-bA = biological target: T2, 4H3631-bA
T2 chain: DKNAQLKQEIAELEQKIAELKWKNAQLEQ

4H584-bA = biological target: T3, 4H584-bA
T3 chain: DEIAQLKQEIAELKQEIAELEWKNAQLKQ

4H619-bA = biological target: T4, 4H619-bA
T4 chain: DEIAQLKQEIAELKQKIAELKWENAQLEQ

4H3414-bA = biological target: T5, 4H3414-bA
T5 chain: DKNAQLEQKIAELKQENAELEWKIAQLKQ

4H3817-bA = biological target: T6, 4H3817-bA
T6 chain: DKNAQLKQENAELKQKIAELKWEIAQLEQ

4H3974-bA = biological target: T7, 4H3974-bA
T7 chain: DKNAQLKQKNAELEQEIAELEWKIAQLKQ

4H850-bA = biological target: T8, 4H850-bA
T8 chain: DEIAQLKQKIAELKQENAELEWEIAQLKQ

4H3638-bA = biological target: T9, 4H3638-bA
T9 chain: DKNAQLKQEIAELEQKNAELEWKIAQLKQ

4H570-bA = biological target: T10, 4H570-bA
T10 chain: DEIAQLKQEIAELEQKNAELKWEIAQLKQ

4H3462-bH = biological target: T11, 4H3462-bH
T11 chain: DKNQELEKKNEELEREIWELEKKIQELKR

4H3628-bH = biological target: T12, 4H3628-bH
T12 chain: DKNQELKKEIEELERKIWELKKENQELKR

4H3926-bH = biological target: T13, 4H3926-bH
T13 chain: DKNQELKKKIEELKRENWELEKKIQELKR

O2-bN = biological target: T14, O2-bN
T14 chain: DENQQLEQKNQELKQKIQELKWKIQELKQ

4H626-bH = biological target: T15, 4H626-bH
T15 chain: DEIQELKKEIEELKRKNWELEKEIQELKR

4H591-bH = biological target: T16, 4H591-bH
T16 chain: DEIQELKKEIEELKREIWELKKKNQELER

4H3497-bH = biological target: T17, 4H3497-bH
T17 chain: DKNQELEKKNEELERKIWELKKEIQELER

4H906-bH = biological target: T18, 4H906-bH
T18 chain: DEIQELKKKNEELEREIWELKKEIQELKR

4H3613-bH = biological target: T19, 4H3613-bH
T19 chain: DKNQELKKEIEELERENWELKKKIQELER

4H570-bN = biological target: T20, 4H570-bN
T20 chain: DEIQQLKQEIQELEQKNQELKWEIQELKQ

4H584-bN = biological target: T21, 4H584-bN
T21 chain: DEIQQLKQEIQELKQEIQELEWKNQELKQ

4H850-bN = biological target: T22, 4H850-bN
T22 chain: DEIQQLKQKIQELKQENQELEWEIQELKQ

4H619-bN = biological target: T23, 4H619-bN
T23 chain: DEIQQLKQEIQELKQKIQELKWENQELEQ

4H906-bN = biological target: T24, 4H906-bN
T24 chain: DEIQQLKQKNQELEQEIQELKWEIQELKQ

P7A = biological target: T25, P7A
T25 chain: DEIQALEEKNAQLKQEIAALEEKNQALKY

interaction score (4H906-bA): -0.43
interaction score (4H3631-bA): 0.00557
interaction score (4H584-bA): -0.456
interaction score (4H619-bA): -1.25
interaction score (4H3414-bA): 0.915
interaction score (4H3817-bA): 0.381
interaction score (4H3974-bA): -0.77
interaction score (4H850-bA): -0.866
interaction score (4H3638-bA): 1.02
interaction score (4H570-bA): 0.386
Binder: DKNAQLEQKIAELKQENAELEWKIAQLKQ [4H3414-bA]

interaction score (4H3462-bH): 0.634
interaction score (4H3628-bH): 0.726
interaction score (4H3926-bH): 0.869
interaction score (O2-bN): 1.13
interaction score (4H626-bH): -0.748
interaction score (4H591-bH): -0.285
interaction score (4H3497-bH): 1.43
interaction score (4H906-bH): 0.0503
interaction score (4H3613-bH): -0.585
Binder: DKNQELEKKNEELEREIWELEKKIQELKR [4H3462-bH]

interaction score (4H570-bN): 0.618
interaction score (4H584-bN): 0.131
interaction score (4H850-bN): 1.82
interaction score (4H619-bN): -1.3
interaction score (4H906-bN): -1.16
interaction score (P7A): -1.87
Binder: DEIQQLKQEIQELEQKNQELKWEIQELKQ [4H570-bN]
